Measured values from article PMC8484351, “Preclinical development of a bispecific TNFα/IL-23 neutralising domain antibody as a novel oral treatment for inflammatory bowel disease” (Scientific Reports, 2021).

B1: single domain antibody 12G1, unoptimised anti-IL-23 domain antibody (VHH)
VHH: EVQLVESGGGLVQPGGSLRLSCAASVSIWSFKVMGWYRQVPGKQRELVATITTGGSPDYADSVKGRFTMSRDYDKRTVFLEMDSVKPEDAAVYYCNGRLWAHLTSSGHDVWGQGTRVTVSS
notes: llama-derived, isolated by phage display after immunisation with human IL-23; Parent of V900; also called clone 12G1; not shown: His6, C-terminal, kept; FLAG, C-terminal, kept
B2: Vorabody V900, anti-IL-23 p19-specific single domain antibody (VHH)
VHH: DVQLVESGGGQVQPGGSLSLSCESSVSIWSFKVMGWFRQVPGKQRELVATITTGGSPDYSDSVKGRFTISRDYDKRTLYLQMNSLKPEDTAVYYCAGRLWAHITSSGHDVWGQGTQVTVSS
notes: 121 amino acids, 13.2 kDa; also called anti-IL-23 (V900); source: S. cerevisiae or Pichia pastoris shake flask cultures, purified (CaptoS ion exchange chromatography)
B3: Recombinant Human IL-23R-FC (Fc fusion, UniProt Q5VWK5 24-355, looked up)
chain: GITNINCSGHIWVEPATIFKMGMNISIYCQAAIKNCQPRKLHFYKNGIKERFQITRINKTTARLWYKNFLEPHASMYCTAECPKHFQETLICGKDISSGYPPDIPDEVTCVIYEYSGNMTCTWNAGKLTYIDTKYVVHVKSLETEEEQQYLTSSYINISTDSLQGGKKYLVWVQAANALGMEESKQLQIHLDDIVIPSAAVISRAETINATVPKTIIYWDSQTTIEKVSCEMRYKATTNQTWNVKEFDTNFTYVQQSEFYLEPNIKYVFQVRCQETGKRYWQPWSSLFFHKTPETVPQVTSKAFQHDTWNSGLTVASISTGHLTSDNRGDIG
notes: source: bought: R&D systems

What was measured:
Recombinant Human IL-23 [1] = target: T1, Recombinant Human IL-23 (human, UniProt Q9NPF7;P29460); assay: ELISA; human IL-23/IL-23R receptor/ligand inhibition ELISA; block buffer 1% BSA in PBS pH 7.4 with 4% Marvel milk; 0.1 mM PMSF added for trypsin-treated V56B2; protocol in the Supplementary Methods; conditions: both partners purified
T1 construct: IL-23p19 subunit of human IL-23; IL-12p40 subunit, shared with IL-12; Heterodimer of p19 and p40; also called interleukin-23; source: bought: Sino Biologicals

Recombinant Human IL-23 [2] = target: T1, Recombinant Human IL-23; assay: cell-based or functional assay
Recombinant Human IL-23 [3] = target: T1, Recombinant Human IL-23; assay: SPR; Biacore; anti-p40 monoclonal antibody coupled to a CM5 chip and loaded with recombinant human IL-23 at 2 or 0.5 ug/mL; V900 at 0.02, 0.08, 0.3, 1.25 and 5 nM, 300 s on and 300 s off, 30 uL/min; conditions: both partners purified
[4] = target: T2, Recombinant cynomolgus monkey IL-23 (cynomolgus monkey); assay: ELISA; cynomolgus monkey IL-23/IL-23R receptor/ligand inhibition ELISA; protocol in the Supplementary Methods; conditions: both partners purified
T2 construct: IL-23p19 subunit of cynomolgus monkey IL-23; IL-12p40 subunit of cynomolgus monkey IL-23; also called cIL-23; IL-23 from cynomolgus monkey; source: bought: Fusion Antibodies (custom preparation)
T2 chain 1: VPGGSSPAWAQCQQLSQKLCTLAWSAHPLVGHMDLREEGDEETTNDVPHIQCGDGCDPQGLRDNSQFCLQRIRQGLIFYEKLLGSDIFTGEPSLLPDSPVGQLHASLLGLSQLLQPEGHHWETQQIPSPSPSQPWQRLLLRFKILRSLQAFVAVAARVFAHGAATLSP
T2 chain 2: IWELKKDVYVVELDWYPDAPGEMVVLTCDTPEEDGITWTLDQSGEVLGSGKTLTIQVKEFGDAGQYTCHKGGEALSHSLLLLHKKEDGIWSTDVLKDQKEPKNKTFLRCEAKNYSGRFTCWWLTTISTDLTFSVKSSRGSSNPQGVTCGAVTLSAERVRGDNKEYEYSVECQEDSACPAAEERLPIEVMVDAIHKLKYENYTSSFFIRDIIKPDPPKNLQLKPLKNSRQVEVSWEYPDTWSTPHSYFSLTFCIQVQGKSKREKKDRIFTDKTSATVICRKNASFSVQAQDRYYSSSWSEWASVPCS

Recombinant Human IL-23 [5] = target: T3, Recombinant Human IL-23 (human, UniProt Q9NPF7 20-189; P29460 23-328); assay: ELISA; human IL-23/IL-23R receptor/ligand inhibition ELISA; block buffer 1% BSA in PBS pH 7.4 with 4% Marvel milk; 0.1 mM PMSF added for trypsin-treated V56B2; protocol in the Supplementary Methods; conditions: both partners purified
T3 construct: IL-23p19 subunit of human IL-23; IL-12p40 subunit, shared with IL-12; Heterodimer of p19 and p40; also called interleukin-23; source: bought: Sino Biologicals
T3 sequence (looked up) 1: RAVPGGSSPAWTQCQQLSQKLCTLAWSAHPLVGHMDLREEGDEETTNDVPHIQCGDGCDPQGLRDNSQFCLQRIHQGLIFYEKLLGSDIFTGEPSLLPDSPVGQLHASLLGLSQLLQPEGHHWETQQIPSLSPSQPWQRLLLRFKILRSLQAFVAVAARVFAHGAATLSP
T3 sequence (looked up) 2: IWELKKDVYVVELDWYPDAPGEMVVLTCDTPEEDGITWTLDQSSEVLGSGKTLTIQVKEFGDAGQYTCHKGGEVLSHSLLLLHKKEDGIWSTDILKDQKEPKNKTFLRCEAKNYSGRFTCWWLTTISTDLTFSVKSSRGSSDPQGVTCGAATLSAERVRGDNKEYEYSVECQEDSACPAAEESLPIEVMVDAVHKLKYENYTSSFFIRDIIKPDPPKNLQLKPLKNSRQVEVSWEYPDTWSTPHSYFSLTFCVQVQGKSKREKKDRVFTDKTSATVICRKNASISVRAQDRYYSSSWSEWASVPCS

| Binder | IC50 (Recombinant Human IL-23 [1]) [nM] | IC50 of inhibition of IL-17 production from murine splenocytes co-stimulated with murine IL-2 and human IL-23 (cellular potency in mouse splenocytes) (Recombinant Human IL-23 [2]) [nM] | Kd (Recombinant Human IL-23 [3]) [nM] | IC50 [4] [nM] | binding result (Recombinant Human IL-23 [5]) |
| --- | --- | --- | --- | --- | --- |
| B1 | 0.2 | 9.3 | – | – | – |
| B2 | 0.2 | 10.7 | 0.032 | 0.7 | – |
| B3 | – | – | – | – | binds |
